Assays:
[1] = target: GST-fused C-tail of the insulin growth factor I receptor (residues 1268–1367); assay: pull-down; GST-fused receptor C-tails immobilized on glutathione-Sepharose beads, incubated with [35S]-labelled in vitro translated GASPs 1 h at 4°C; 20 mM Tris-HCl pH 7.4, 150 mM NaCl, 1 mM EDTA, 1 mM DTT, 10% glycerol, 1% Triton X-100; Phosphor-imager quantification
[2] = target: GST-fused C-tail of the δ-opioid receptor (residues 314–372); assay: as above
[3] = target: GST-fused C-tail of the histamine 2 receptor (residues 284–349); assay: as above
Chain of GST-fused C-tail of the histamine 2 receptor (residues 284–349) (P25021 284-349): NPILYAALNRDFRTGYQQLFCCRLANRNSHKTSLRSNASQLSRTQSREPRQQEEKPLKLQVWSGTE

free GST = assay: as above
[4] = target: T1, GST-fused C-tail of the calcitonin receptor (residues 407–490); assay: as above
T1 sequence (P30988 whole entry, species assumed, looked up): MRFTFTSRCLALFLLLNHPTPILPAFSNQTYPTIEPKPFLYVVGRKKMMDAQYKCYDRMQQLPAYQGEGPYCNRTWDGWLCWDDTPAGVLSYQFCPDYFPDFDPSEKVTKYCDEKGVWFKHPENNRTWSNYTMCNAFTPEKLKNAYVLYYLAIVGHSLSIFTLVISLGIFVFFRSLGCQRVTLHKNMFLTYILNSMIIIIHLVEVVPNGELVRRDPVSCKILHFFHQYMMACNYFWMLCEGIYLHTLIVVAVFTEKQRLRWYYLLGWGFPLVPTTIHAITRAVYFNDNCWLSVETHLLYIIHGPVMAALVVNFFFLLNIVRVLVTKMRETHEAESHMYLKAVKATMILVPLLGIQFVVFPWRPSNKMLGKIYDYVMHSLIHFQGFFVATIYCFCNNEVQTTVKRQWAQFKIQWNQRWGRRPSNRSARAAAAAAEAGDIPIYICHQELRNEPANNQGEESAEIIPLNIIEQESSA

[5] = target: GST-fused C-tail of the β1 adrenergic receptor (residues 373–477); assay: as above
[6] = target: GST-fused C-tail of the muscarinic M1 acetylcholine receptor (residues 414–460); assay: as above
[7] = target: GST-fused C-tail of the type III transforming growth factor β receptor (residues 805–849); assay: as above
Chain of GST-fused C-tail of the type III transforming growth factor β receptor (residues 805–849) (Q03167 805-849): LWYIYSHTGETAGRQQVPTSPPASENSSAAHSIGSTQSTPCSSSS

[8] = target: GST-fused C-tail of the α isoform of the thromboxane A2 receptor (residues 304–343); assay: as above
[9] = target: GST-fused C-tail of the β1 adrenergic receptor (residues 373–477); assay: GST pull-down; details: parent: est. 100; read off a plot
[10] = target: GST-fused C-tail of the muscarinic M1 acetylcholine receptor (residues 414–460); assay: GST pull-down; details: parent: est. 100; read off a plot
[11] = target: T1, GST-fused C-tail of the calcitonin receptor (residues 407–490); assay: GST pull-down; details: parent: est. 100; read off a plot

Chain of GASP-9 (Q7L311 whole entry): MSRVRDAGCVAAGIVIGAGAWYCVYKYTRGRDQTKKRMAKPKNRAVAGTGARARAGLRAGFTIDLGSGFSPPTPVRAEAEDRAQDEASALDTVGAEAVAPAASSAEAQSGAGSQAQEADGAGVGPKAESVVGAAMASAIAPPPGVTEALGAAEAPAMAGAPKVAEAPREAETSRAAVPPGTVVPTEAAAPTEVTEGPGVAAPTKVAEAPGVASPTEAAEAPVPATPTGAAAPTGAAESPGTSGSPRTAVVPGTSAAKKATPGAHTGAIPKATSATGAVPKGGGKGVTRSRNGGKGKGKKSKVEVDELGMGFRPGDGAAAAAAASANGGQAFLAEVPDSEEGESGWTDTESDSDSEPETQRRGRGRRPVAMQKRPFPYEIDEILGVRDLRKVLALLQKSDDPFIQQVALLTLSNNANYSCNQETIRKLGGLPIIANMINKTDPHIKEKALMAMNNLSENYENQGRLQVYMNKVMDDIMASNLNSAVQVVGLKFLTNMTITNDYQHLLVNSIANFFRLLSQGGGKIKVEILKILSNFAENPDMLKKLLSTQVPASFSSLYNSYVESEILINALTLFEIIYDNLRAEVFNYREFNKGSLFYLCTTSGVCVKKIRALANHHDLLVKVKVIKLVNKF
Chain of GPCR-associated sorting protein 2 (GASP-2), full-length (from UniProt Q96D09) SWFW>AAAA in first GASP motif; SWFW>AAAA in second GASP motif (GASP2-dm; residue numbers not printed) (Q96D09 whole entry, change not shown): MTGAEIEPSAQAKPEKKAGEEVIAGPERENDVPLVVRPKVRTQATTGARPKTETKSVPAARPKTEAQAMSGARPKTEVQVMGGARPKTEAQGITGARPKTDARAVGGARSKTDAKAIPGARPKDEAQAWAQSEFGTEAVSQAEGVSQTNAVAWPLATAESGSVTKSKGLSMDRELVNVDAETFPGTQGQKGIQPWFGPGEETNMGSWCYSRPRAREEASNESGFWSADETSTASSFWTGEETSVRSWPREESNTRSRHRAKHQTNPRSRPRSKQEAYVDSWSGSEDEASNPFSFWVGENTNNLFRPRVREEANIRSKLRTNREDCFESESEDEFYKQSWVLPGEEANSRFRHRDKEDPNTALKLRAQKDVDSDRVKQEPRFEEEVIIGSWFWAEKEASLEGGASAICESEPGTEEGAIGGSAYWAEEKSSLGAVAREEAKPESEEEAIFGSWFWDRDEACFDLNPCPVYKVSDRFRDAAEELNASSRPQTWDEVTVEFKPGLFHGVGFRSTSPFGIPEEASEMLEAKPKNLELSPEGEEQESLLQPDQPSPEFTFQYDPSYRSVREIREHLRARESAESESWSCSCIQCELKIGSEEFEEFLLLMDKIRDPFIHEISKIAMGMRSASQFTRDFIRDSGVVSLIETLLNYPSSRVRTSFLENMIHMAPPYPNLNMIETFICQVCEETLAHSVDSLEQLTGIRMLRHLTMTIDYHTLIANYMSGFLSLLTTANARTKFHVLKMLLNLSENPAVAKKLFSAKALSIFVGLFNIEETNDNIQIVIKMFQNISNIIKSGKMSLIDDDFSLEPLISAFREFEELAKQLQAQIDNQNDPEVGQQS
Chain of GPCR-associated sorting protein 2 (GASP-2), full-length (from UniProt Q96D09) SWFW>AAAA in first GASP motif (GASP2-m1; residue numbers not printed) (Q96D09 whole entry, change not shown): as above
Chain of GPCR-associated sorting protein 2 (GASP-2), full-length (from UniProt Q96D09) SWFW>AAAA in second GASP motif (GASP2-m2; residue numbers not printed) (Q96D09 whole entry, change not shown): as above
Chain of GST-fused C-tail of the insulin growth factor I receptor (residues 1268–1367) (P08069 1268-1367): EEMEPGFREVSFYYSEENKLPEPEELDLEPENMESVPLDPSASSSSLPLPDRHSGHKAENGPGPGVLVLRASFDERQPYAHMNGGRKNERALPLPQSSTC

For “GASP-9 (from UniProt Q7L311 1-632) (natural protein)”, the percent of GASP input retained (% of GASP input) [1] was under 1, the percent of GASP input retained (% of GASP input) [2] was 2 and the percent of GASP input retained (% of GASP input) [3] was 2. For the same substance, the percent of GASP input retained (% of GASP input) (free GST) was under 1, the percent of GASP input retained (% of GASP input) [4] was 2 and the percent of GASP input retained (% of GASP input) [5] was 2. The percent of GASP input retained (% of GASP input) [6] was 2, the percent of GASP input retained (% of GASP input) [7] was under 1 and the percent of GASP input retained (% of GASP input) [8] was 2.

“GPCR-associated sorting protein 2 (GASP-2), full-length (from UniProt Q96D09) SWFW>AAAA in first GASP motif (GASP2-m1; residue numbers not printed)” was tested, and the percent of parent (% of wild-type GASP-2) [9] was 27 and the percent of parent (% of wild-type GASP-2) [10] was 24.

Work on “GPCR-associated sorting protein 2 (GASP-2), full-length (from UniProt Q96D09) SWFW>AAAA in first GASP motif; SWFW>AAAA in second GASP motif (GASP2-dm; residue numbers not printed)” yielded a percent of parent (% of wild-type GASP-2) [11] of 20, a percent of parent (% of wild-type GASP-2) [9] of 1.5 and a percent of parent (% of wild-type GASP-2) [10] of 5.5.

Substance “GPCR-associated sorting protein 2 (GASP-2), full-length (from UniProt Q96D09) SWFW>AAAA in second GASP motif (GASP2-m2; residue numbers not printed)” has a percent of parent (% of wild-type GASP-2) [9] of 11 and a percent of parent (% of wild-type GASP-2) [10] of 20.
